The results in this text go back to patent publication US20140087995A1 (published 2014).

Numbered stars: 1 amine (or outer) side, 2 acyl side, 3 side chain; on linkers, the order of the positions; unused ones are H or OH. Bridge positions count the residues as written; N and C are the ends. Side chains are listed from the residue outwards. Ends that are not written are not given here. * marks the point of attachment. C20 diacid = O=C(O)CCCCCCCCCCCCCCCCCCC(=O)*; γGlu = O=C(O)[C@H](CCC(=O)[*:2])N[*:1]

Sequences and labels used below:
T1: human amylin receptor (amylin 3(a) receptor: human calcitonin receptor with RAMP-3) (human, UniProt P30988 25-474; O60896 24-148)
T1 construct: whole, on cells; also called hAmylin-R; hAmylinR
T1 sequence (looked up) 1: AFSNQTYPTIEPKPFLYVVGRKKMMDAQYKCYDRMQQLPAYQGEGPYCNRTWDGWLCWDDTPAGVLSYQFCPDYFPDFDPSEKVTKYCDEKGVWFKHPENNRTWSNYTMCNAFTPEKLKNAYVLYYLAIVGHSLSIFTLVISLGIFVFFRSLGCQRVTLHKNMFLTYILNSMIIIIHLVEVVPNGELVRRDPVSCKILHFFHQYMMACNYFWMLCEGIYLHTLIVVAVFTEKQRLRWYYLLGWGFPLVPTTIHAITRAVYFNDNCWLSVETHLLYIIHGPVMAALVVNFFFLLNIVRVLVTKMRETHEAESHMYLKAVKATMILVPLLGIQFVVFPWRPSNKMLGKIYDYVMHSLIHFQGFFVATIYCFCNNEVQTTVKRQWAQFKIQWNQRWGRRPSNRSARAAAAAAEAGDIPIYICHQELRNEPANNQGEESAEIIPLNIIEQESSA
T1 sequence (looked up) 2: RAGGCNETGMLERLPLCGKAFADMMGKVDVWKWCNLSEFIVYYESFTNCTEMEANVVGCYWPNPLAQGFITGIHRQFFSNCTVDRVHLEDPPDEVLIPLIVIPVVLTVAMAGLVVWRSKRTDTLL

B1: N^ε1-[(4S)-4-carboxy-4-[[(4S)-4-carboxy-4-(19-carboxynonadecanoylamino)butanoyl]amino]butanoyl]-[Asp14,Arg17,Pro21,Pro27,Asp35]-h-amylin (peptide)
peptide: K([γGlu-γGlu-C20 diacid])CNTATCATQRLADFLRHSSPNFGAIPSSTNVGSDTY-NH2
modifications: disulfide 2-7; N-terminus assumed
SMILES: CC[C@H](C)[C@H](NC(=O)[C@H](C)NC(=O)CNC(=O)[C@H](Cc1ccccc1)NC(=O)[C@H](CC(N)=O)NC(=O)[C@@H]1CCCN1C(=O)[C@H](CO)NC(=O)[C@H](CO)NC(=O)[C@H](Cc1c[nH]cn1)NC(=O)[C@H](CCCNC(=N)N)NC(=O)[C@H](CC(C)C)NC(=O)[C@H](Cc1ccccc1)NC(=O)[C@H](CC(=O)O)NC(=O)[C@H](C)NC(=O)[C@H](CC(C)C)NC(=O)[C@H](CCCNC(=N)N)NC(=O)[C@H](CCC(N)=O)NC(=O)[C@@H](NC(=O)[C@H](C)NC(=O)[C@@H]1CSSC[C@H](NC(=O)[C@@H](N)CCCCNC(=O)CC[C@H](NC(=O)CC[C@H](NC(=O)CCCCCCCCCCCCCCCCCCC(=O)O)C(=O)O)C(=O)O)C(=O)N[C@@H](CC(N)=O)C(=O)N[C@@H]([C@@H](C)O)C(=O)N[C@@H](C)C(=O)N[C@@H]([C@@H](C)O)C(=O)N1)[C@@H](C)O)C(=O)N1CCC[C@H]1C(=O)N[C@@H](CO)C(=O)N[C@@H](CO)C(=O)N[C@H](C(=O)N[C@@H](CC(N)=O)C(=O)N[C@H](C(=O)NCC(=O)N[C@@H](CO)C(=O)N[C@@H](CC(=O)O)C(=O)N[C@H](C(=O)N[C@@H](Cc1ccc(O)cc1)C(N)=O)[C@@H](C)O)C(C)C)[C@@H](C)O
notes: also called compound 2
B2: N^ε1-[(4S)-4-carboxy-4-[[(4S)-4-carboxy-4-(19-carboxynonadecanoylamino)butanoyl]amino]butanoyl]-[Glu14,Arg17,Pro21,Pro27,Pro37]-h-amylin (peptide)
peptide: K([γGlu-γGlu-C20 diacid])CNTATCATQRLAEFLRHSSPNFGAIPSSTNVGSNTP-NH2
modifications: disulfide 2-7; N-terminus assumed
SMILES: CC[C@H](C)[C@H](NC(=O)[C@H](C)NC(=O)CNC(=O)[C@H](Cc1ccccc1)NC(=O)[C@H](CC(N)=O)NC(=O)[C@@H]1CCCN1C(=O)[C@H](CO)NC(=O)[C@H](CO)NC(=O)[C@H](Cc1c[nH]cn1)NC(=O)[C@H](CCCNC(=N)N)NC(=O)[C@H](CC(C)C)NC(=O)[C@H](Cc1ccccc1)NC(=O)[C@H](CCC(=O)O)NC(=O)[C@H](C)NC(=O)[C@H](CC(C)C)NC(=O)[C@H](CCCNC(=N)N)NC(=O)[C@H](CCC(N)=O)NC(=O)[C@@H](NC(=O)[C@H](C)NC(=O)[C@@H]1CSSC[C@H](NC(=O)[C@@H](N)CCCCNC(=O)CC[C@H](NC(=O)CC[C@H](NC(=O)CCCCCCCCCCCCCCCCCCC(=O)O)C(=O)O)C(=O)O)C(=O)N[C@@H](CC(N)=O)C(=O)N[C@@H]([C@@H](C)O)C(=O)N[C@@H](C)C(=O)N[C@@H]([C@@H](C)O)C(=O)N1)[C@@H](C)O)C(=O)N1CCC[C@H]1C(=O)N[C@@H](CO)C(=O)N[C@@H](CO)C(=O)N[C@H](C(=O)N[C@@H](CC(N)=O)C(=O)N[C@H](C(=O)NCC(=O)N[C@@H](CO)C(=O)N[C@@H](CC(N)=O)C(=O)N[C@H](C(=O)N1CCC[C@H]1C(N)=O)[C@@H](C)O)C(C)C)[C@@H](C)O
notes: also called 13; compound 13
B3: N^ε1-[(4S)-4-carboxy-4-[[(4S)-4-carboxy-4-(19-carboxynonadecanoylamino)butanoyl]amino]butanoyl]-[Glu14,Arg17,Pro21,Pro27,Arg35]-h-amylin (peptide)
peptide: K([γGlu-γGlu-C20 diacid])CNTATCATQRLAEFLRHSSPNFGAIPSSTNVGSRTY-NH2
modifications: disulfide 2-7; N-terminus assumed
SMILES: CC[C@H](C)[C@H](NC(=O)[C@H](C)NC(=O)CNC(=O)[C@H](Cc1ccccc1)NC(=O)[C@H](CC(N)=O)NC(=O)[C@@H]1CCCN1C(=O)[C@H](CO)NC(=O)[C@H](CO)NC(=O)[C@H](Cc1c[nH]cn1)NC(=O)[C@H](CCCNC(=N)N)NC(=O)[C@H](CC(C)C)NC(=O)[C@H](Cc1ccccc1)NC(=O)[C@H](CCC(=O)O)NC(=O)[C@H](C)NC(=O)[C@H](CC(C)C)NC(=O)[C@H](CCCNC(=N)N)NC(=O)[C@H](CCC(N)=O)NC(=O)[C@@H](NC(=O)[C@H](C)NC(=O)[C@@H]1CSSC[C@H](NC(=O)[C@@H](N)CCCCNC(=O)CC[C@H](NC(=O)CC[C@H](NC(=O)CCCCCCCCCCCCCCCCCCC(=O)O)C(=O)O)C(=O)O)C(=O)N[C@@H](CC(N)=O)C(=O)N[C@@H]([C@@H](C)O)C(=O)N[C@@H](C)C(=O)N[C@@H]([C@@H](C)O)C(=O)N1)[C@@H](C)O)C(=O)N1CCC[C@H]1C(=O)N[C@@H](CO)C(=O)N[C@@H](CO)C(=O)N[C@H](C(=O)N[C@@H](CC(N)=O)C(=O)N[C@H](C(=O)NCC(=O)N[C@@H](CO)C(=O)N[C@@H](CCCNC(=N)N)C(=O)N[C@H](C(=O)N[C@@H](Cc1ccc(O)cc1)C(N)=O)[C@@H](C)O)C(C)C)[C@@H](C)O
notes: also called 89; compound 89
B4: N^ε1-[(4S)-4-carboxy-4-[[(4S)-4-carboxy-4-(19-carboxynonadecanoylamino)butanoyl]amino]butanoyl]-[Glu14,Arg17,Pro21,Pro27,His34]-h-amylin (peptide)
peptide: K([γGlu-γGlu-C20 diacid])CNTATCATQRLAEFLRHSSPNFGAIPSSTNVGHNTY-NH2
modifications: disulfide 2-7; N-terminus assumed
SMILES: CC[C@H](C)[C@H](NC(=O)[C@H](C)NC(=O)CNC(=O)[C@H](Cc1ccccc1)NC(=O)[C@H](CC(N)=O)NC(=O)[C@@H]1CCCN1C(=O)[C@H](CO)NC(=O)[C@H](CO)NC(=O)[C@H](Cc1c[nH]cn1)NC(=O)[C@H](CCCNC(=N)N)NC(=O)[C@H](CC(C)C)NC(=O)[C@H](Cc1ccccc1)NC(=O)[C@H](CCC(=O)O)NC(=O)[C@H](C)NC(=O)[C@H](CC(C)C)NC(=O)[C@H](CCCNC(=N)N)NC(=O)[C@H](CCC(N)=O)NC(=O)[C@@H](NC(=O)[C@H](C)NC(=O)[C@@H]1CSSC[C@H](NC(=O)[C@@H](N)CCCCNC(=O)CC[C@H](NC(=O)CC[C@H](NC(=O)CCCCCCCCCCCCCCCCCCC(=O)O)C(=O)O)C(=O)O)C(=O)N[C@@H](CC(N)=O)C(=O)N[C@@H]([C@@H](C)O)C(=O)N[C@@H](C)C(=O)N[C@@H]([C@@H](C)O)C(=O)N1)[C@@H](C)O)C(=O)N1CCC[C@H]1C(=O)N[C@@H](CO)C(=O)N[C@@H](CO)C(=O)N[C@H](C(=O)N[C@@H](CC(N)=O)C(=O)N[C@H](C(=O)NCC(=O)N[C@@H](Cc1c[nH]cn1)C(=O)N[C@@H](CC(N)=O)C(=O)N[C@H](C(=O)N[C@@H](Cc1ccc(O)cc1)C(N)=O)[C@@H](C)O)C(C)C)[C@@H](C)O
notes: also called 87; compound 87
B5: N^ε1-[(4S)-4-carboxy-4-[[(4S)-4-carboxy-4-(19-carboxynonadecanoylamino)butanoyl]amino]butanoyl]-[Glu14,Arg17,Pro21,Pro27,Arg34]-h-amylin (peptide)
peptide: K([γGlu-γGlu-C20 diacid])CNTATCATQRLAEFLRHSSPNFGAIPSSTNVGRNTY-NH2
modifications: disulfide 2-7; N-terminus assumed
SMILES: CC[C@H](C)[C@H](NC(=O)[C@H](C)NC(=O)CNC(=O)[C@H](Cc1ccccc1)NC(=O)[C@H](CC(N)=O)NC(=O)[C@@H]1CCCN1C(=O)[C@H](CO)NC(=O)[C@H](CO)NC(=O)[C@H](Cc1c[nH]cn1)NC(=O)[C@H](CCCNC(=N)N)NC(=O)[C@H](CC(C)C)NC(=O)[C@H](Cc1ccccc1)NC(=O)[C@H](CCC(=O)O)NC(=O)[C@H](C)NC(=O)[C@H](CC(C)C)NC(=O)[C@H](CCCNC(=N)N)NC(=O)[C@H](CCC(N)=O)NC(=O)[C@@H](NC(=O)[C@H](C)NC(=O)[C@@H]1CSSC[C@H](NC(=O)[C@@H](N)CCCCNC(=O)CC[C@H](NC(=O)CC[C@H](NC(=O)CCCCCCCCCCCCCCCCCCC(=O)O)C(=O)O)C(=O)O)C(=O)N[C@@H](CC(N)=O)C(=O)N[C@@H]([C@@H](C)O)C(=O)N[C@@H](C)C(=O)N[C@@H]([C@@H](C)O)C(=O)N1)[C@@H](C)O)C(=O)N1CCC[C@H]1C(=O)N[C@@H](CO)C(=O)N[C@@H](CO)C(=O)N[C@H](C(=O)N[C@@H](CC(N)=O)C(=O)N[C@H](C(=O)NCC(=O)N[C@@H](CCCNC(=N)N)C(=O)N[C@@H](CC(N)=O)C(=O)N[C@H](C(=O)N[C@@H](Cc1ccc(O)cc1)C(N)=O)[C@@H](C)O)C(C)C)[C@@H](C)O
notes: also called 88; compound 88
B6: N^ε1-[(4S)-4-carboxy-4-[[(4S)-4-carboxy-4-(19-carboxynonadecanoylamino)butanoyl]amino]butanoyl]-[Asp14,Arg17,Pro22,Pro26,Asp35]-h-amylin (peptide)
peptide: K([γGlu-γGlu-C20 diacid])CNTATCATQRLADFLRHSSNPFGAPLSSTNVGSDTY-NH2
modifications: disulfide 2-7; N-terminus assumed
SMILES: CC(C)C[C@H](NC(=O)[C@H](CCCNC(=N)N)NC(=O)[C@H](CCC(N)=O)NC(=O)[C@@H](NC(=O)[C@H](C)NC(=O)[C@@H]1CSSC[C@H](NC(=O)[C@@H](N)CCCCNC(=O)CC[C@H](NC(=O)CC[C@H](NC(=O)CCCCCCCCCCCCCCCCCCC(=O)O)C(=O)O)C(=O)O)C(=O)N[C@@H](CC(N)=O)C(=O)N[C@@H]([C@@H](C)O)C(=O)N[C@@H](C)C(=O)N[C@@H]([C@@H](C)O)C(=O)N1)[C@@H](C)O)C(=O)N[C@@H](C)C(=O)N[C@@H](CC(=O)O)C(=O)N[C@@H](Cc1ccccc1)C(=O)N[C@@H](CC(C)C)C(=O)N[C@@H](CCCNC(=N)N)C(=O)N[C@@H](Cc1c[nH]cn1)C(=O)N[C@@H](CO)C(=O)N[C@@H](CO)C(=O)N[C@@H](CC(N)=O)C(=O)N1CCC[C@H]1C(=O)N[C@@H](Cc1ccccc1)C(=O)NCC(=O)N[C@@H](C)C(=O)N1CCC[C@H]1C(=O)N[C@@H](CC(C)C)C(=O)N[C@@H](CO)C(=O)N[C@@H](CO)C(=O)N[C@H](C(=O)N[C@@H](CC(N)=O)C(=O)N[C@H](C(=O)NCC(=O)N[C@@H](CO)C(=O)N[C@@H](CC(=O)O)C(=O)N[C@H](C(=O)N[C@@H](Cc1ccc(O)cc1)C(N)=O)[C@@H](C)O)C(C)C)[C@@H](C)O
notes: also called compound 3

The experiment concerns the target T1, human amylin receptor (amylin 3(a) …). In words: SPA displacement of 125I-rat amylin, hAmylin 3(a) receptor membranes. The method in brief: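 SPA beads + BHK amylin 3(a)/CRE-luc membranes, 35 ng/μL final; buffer 50 mM Hepes pH 7.4, 1 mM CaCl2, 5 mM MgCl₂, 0.1% OA, 0.02% Tween20. 120 min, 25° C, shaken; scintillation count. IC₅₀ by one-site binding competition fit, taken as receptor affinity.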
On to B1, for which the IC50 is 0.411 nM.
Consider B2, for which the IC50 was found to be 0.264 nM.
For B3, the IC50 came out at 1.16 nM.
Consider B4, for which the IC50 stood at 0.633 nM.
The same measure for B5: 0.75 nM; for B6: 1.13 nM.
